{
  "source": "paper PMC4938799",
  "about": "“LD Motif Recognition by Talin: Structure of the Talin-DLC1 Complex” (Structure(London, England:1993), 2016)",
  "system": "A549 human non-small cell lung cancer line",
  "assay": "G418 (monolayer) colony growth assay",
  "format": "cell-based",
  "details": "transfected A549, G418 for 3 weeks; mean over three experiments",
  "text": "Figure 6 Talin R8 Mutations Disrupt the Interaction with DLC1 and Affect Its Biological Activity (A) Wild-type GST-talin fragments pull down more DLC1 than the 2E mutants. Extracts of HEK293T cells transfected with GFP-DLC1 and GST-talin constructs were subjected to pull-down assays with glutathione beads followed by immunoblotting with anti-GST and anti-DLC1 on the same membrane (top). The transfected GFP-DLC1 in each sample is shown by the anti-DLC1 blot (bottom) as a loading control. (B) Wild-type GST-talin fragments compete efficiently with endogenous talin to form a complex with DLC1. The supernatants collected after pull-down assay from (A) were reused for co-immunoprecipitation with an anti-talin antibody and blotted with anti-DLC1 (top). A small aliquot from each lane was blotted for endogenous talin as a loading control (bottom). (C) Co-expression of GST or GST-talin fragments (wild-type or 2E mutant) with GFP DLC1 in A549 cells. […] Transfected A549 cells were cultured in G418 for 3 weeks, and colonies counted and quantitated (top). […] Transfected A549 cells were grown for 3 weeks in soft agar, and colonies counted and quantitated (top). […] Lysates from migrated cells were quantitated (top), and representative microscopic images of the migrated cells are shown (bottom). […]",
  "data": [
    {"molecule": "GST-R8: GST-tagged talin R8, amino acids 1,453–1,580 (protein, left off: GST, end not stated, kept) NSQAGQQGLVEPTQFARANQAIQMACQSLGEPGCTQAQVLSAATIVAKHTSALCNSCRLASARTANPTAKRQFVQSAKEVANSTANLVKTIKALDGDFTEENRAQCRAATAPLLEAVDNLSAFASNPE", "values": [
      {"measurement": "colony growth", "result": "no detectable biological activity"}
    ]}
  ]
}
